Data as given in publication PMC10397247.
Blank lines part the entries; values can stand above or below the binder they belong to.

Key:
Assay in all cases: two-hybrid library CCNG1;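 note: natural log of median RNA to DNA barcode read ratio; higher means stronger binding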
4H796-bA = target: T1, 4H796-bA
T1 chain: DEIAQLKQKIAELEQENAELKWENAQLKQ

4H492-bN = target: T2, 4H492-bN
T2 chain: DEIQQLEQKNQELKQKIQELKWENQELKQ

4H741-bN = target: T3, 4H741-bN
T3 chain: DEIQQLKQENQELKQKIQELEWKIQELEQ

P1A-bS = target: T4, P1A-bS
T4 chain: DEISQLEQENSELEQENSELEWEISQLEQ

4H741-bA = target: T5, 4H741-bA
T5 chain: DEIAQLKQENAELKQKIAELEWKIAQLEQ

4H348-bA = target: T6, 4H348-bA
T6 chain: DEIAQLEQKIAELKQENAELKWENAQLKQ

4H2692-bA = target: T7, 4H2692-bA
T7 chain: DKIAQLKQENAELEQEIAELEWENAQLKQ

4H2915-bA = target: T8, 4H2915-bA
T8 chain: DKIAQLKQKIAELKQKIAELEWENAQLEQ

4H2839-bA = target: T9, 4H2839-bA
T9 chain: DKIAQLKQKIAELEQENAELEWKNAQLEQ

4H2223-bA = target: T10, 4H2223-bA
T10 chain: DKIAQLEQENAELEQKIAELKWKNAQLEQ

4H2503-bA = target: T11, 4H2503-bA
T11 chain: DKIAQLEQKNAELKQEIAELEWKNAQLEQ

4H2717-bA = target: T12, 4H2717-bA
T12 chain: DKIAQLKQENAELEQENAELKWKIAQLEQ

4H492-bA = target: T13, 4H492-bA
T13 chain: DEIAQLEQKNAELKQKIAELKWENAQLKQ

4H319-bA = target: T14, 4H319-bA
T14 chain: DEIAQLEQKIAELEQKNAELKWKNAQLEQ

4H2473-bA = target: T15, 4H2473-bA
T15 chain: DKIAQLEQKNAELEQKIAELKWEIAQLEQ

4H40-bA = target: T16, 4H40-bA
T16 chain: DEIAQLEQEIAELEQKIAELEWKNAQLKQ

4H3057-bA = target: T17, 4H3057-bA
T17 chain: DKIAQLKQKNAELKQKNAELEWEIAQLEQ

4H2588-bA = target: T18, 4H2588-bA
T18 chain: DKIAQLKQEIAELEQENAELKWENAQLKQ

4H2438-bA = target: T19, 4H2438-bA
T19 chain: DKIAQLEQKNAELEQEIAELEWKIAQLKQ

4H3277-bA = target: T20, 4H3277-bA
T20 chain: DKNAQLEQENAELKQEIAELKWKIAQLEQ

4H477-bA = target: T21, 4H477-bA
T21 chain: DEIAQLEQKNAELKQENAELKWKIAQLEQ

interaction score (4H796-bA): 0.0979 | interaction score (4H492-bN): -0.118 | interaction score (4H741-bN): -0.326 | interaction score (P1A-bS): -1.07
Binder: DEIQQLEQKNQELKQKIQELKWENQELKQ [4H492-bN]

interaction score (4H741-bA): 0.169 | interaction score (4H348-bA): -1.22 | interaction score (4H2692-bA): -0.196 | interaction score (4H2915-bA): 0.32 | interaction score (4H2839-bA): -0.368 | interaction score (4H2223-bA): 0.291 | interaction score (4H2503-bA): 1.47 | interaction score (4H2717-bA): -0.279 | interaction score (4H492-bA): 1.49 | interaction score (4H319-bA): -0.61 | interaction score (4H2473-bA): -0.247 | interaction score (4H40-bA): -1.46 | interaction score (4H3057-bA): 0.223 | interaction score (4H2588-bA): -0.336 | interaction score (4H2438-bA): 0.457 | interaction score (4H3277-bA): -0.571 | interaction score (4H477-bA): -1.47
Binder: DKIAQLEQENAELEQKIAELKWKNAQLEQ [4H2223-bA]
